Substitutions are numbered along the chain they refer to. In names and notes the source's numbering stands.
What was measured:
[1] = target: T1, alkaline ceramidase 3 (ACER3) (Homo sapiens, UniProt Q9NUN7); experiment: microsomal ceramidase activity assay with NBD-C12-PHC, HPLC fluorescence; Lineweaver-Burk kinetics; type: biochemical
T1 sequence (Q9NUN7 1-267): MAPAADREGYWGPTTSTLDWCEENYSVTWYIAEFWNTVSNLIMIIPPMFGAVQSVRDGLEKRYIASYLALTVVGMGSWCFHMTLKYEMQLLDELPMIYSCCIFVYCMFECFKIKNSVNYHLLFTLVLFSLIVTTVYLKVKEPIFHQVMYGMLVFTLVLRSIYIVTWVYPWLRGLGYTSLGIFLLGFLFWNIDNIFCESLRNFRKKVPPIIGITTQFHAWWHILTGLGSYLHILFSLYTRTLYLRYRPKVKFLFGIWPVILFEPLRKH

[2] = substrate: CCCCCCCCCCCCCC[C@@H](O)[C@@H](O)[C@H](CO)NC(=O)CCCCCCCCCCCNc1ccc([N+](=O)[O-])c2nonc12; experiment: cells, lysate or membranes; type: biochemical, Homo sapiens
[3] = substrate: CCCCCCCCCCCCCC[C@@H](O)[C@@H](O)[C@H](CO)NC(=O)CCCCCCCCCCCNc1ccc([N+](=O)[O-])c2nonc12; experiment: Michaelis-Menten kinetics (KM), microsomal assay with HPLC fluorescence; type: biochemical, Homo sapiens; settings: Zn2+ (Ca2+ in buffer) Zn2+ active site

## CC(/C=C/C(=O)NO)=C\[C@@H](C)C(=O)c1ccc(N(C)C)cc1 [TSA, Trichostatin A]
[1]
  IC50: 71.4 µM

B1: alkaline ceramidase 3 (ACER3) (Homo sapiens) (protein)
chain: T1 sequence (Q9NUN7 1-267)
notes: FLAG-tagged open reading frame of wild-type ACER3, in microsomes of yeast Δypc1Δydc1 cells
[2]; Zn2+ (Ca2+ in buffer) Zn2+ active site (His81, His217, His221, Asp92, Ser77)
  Km: 15.48 ± 1.248 µM

B2: alkaline ceramidase 3 (ACER3) (Homo sapiens; S77A) (protein)
chain: T1 sequence (Q9NUN7 1-267) with S77A
notes: FLAG-tagged ACER3 S77A, in microsomes of yeast Δypc1Δydc1 cells
[3]
  Km: 38 µM

B3: alkaline ceramidase 3 (ACER3) (Homo sapiens; S77C) (protein)
chain: T1 sequence (Q9NUN7 1-267) with S77C
notes: FLAG-tagged ACER3 S77C, in microsomes of yeast Δypc1Δydc1 cells
[2]; Zn2+ (Ca2+ in buffer) Zn2+ active site
  Km: 66.43 ± 6.143 µM

— article PMC9436119, “Alkaline ceramidase catalyzes the hydrolysis of ceramides via a catalytic mechanism shared by Zn^2+-dependent amidases” (PLoS ONE, 2022)
